Data: paper PMC6504924

Tests used:
[1] = biological target: NanoLuc:VEGFR2 fusion on cells (UniProt P35968)
[2] = biological target: NanoLuc:VEGFR2 fusion on cells (UniProt P35968); assay: FRET or BRET; saturation binding on live HEK293T cells transiently expressing a NanoLuc:RTK fusion; increasing concentrations of DY605-labeled growth factor with and without excess (0.5 µM) unlabeled equivalent; 1.5 h at room temperature, OptiMEM; apparent affinities (EC50)

Sequence of NanoLuc:VEGFR2 fusion on cells (P35968 20-1356): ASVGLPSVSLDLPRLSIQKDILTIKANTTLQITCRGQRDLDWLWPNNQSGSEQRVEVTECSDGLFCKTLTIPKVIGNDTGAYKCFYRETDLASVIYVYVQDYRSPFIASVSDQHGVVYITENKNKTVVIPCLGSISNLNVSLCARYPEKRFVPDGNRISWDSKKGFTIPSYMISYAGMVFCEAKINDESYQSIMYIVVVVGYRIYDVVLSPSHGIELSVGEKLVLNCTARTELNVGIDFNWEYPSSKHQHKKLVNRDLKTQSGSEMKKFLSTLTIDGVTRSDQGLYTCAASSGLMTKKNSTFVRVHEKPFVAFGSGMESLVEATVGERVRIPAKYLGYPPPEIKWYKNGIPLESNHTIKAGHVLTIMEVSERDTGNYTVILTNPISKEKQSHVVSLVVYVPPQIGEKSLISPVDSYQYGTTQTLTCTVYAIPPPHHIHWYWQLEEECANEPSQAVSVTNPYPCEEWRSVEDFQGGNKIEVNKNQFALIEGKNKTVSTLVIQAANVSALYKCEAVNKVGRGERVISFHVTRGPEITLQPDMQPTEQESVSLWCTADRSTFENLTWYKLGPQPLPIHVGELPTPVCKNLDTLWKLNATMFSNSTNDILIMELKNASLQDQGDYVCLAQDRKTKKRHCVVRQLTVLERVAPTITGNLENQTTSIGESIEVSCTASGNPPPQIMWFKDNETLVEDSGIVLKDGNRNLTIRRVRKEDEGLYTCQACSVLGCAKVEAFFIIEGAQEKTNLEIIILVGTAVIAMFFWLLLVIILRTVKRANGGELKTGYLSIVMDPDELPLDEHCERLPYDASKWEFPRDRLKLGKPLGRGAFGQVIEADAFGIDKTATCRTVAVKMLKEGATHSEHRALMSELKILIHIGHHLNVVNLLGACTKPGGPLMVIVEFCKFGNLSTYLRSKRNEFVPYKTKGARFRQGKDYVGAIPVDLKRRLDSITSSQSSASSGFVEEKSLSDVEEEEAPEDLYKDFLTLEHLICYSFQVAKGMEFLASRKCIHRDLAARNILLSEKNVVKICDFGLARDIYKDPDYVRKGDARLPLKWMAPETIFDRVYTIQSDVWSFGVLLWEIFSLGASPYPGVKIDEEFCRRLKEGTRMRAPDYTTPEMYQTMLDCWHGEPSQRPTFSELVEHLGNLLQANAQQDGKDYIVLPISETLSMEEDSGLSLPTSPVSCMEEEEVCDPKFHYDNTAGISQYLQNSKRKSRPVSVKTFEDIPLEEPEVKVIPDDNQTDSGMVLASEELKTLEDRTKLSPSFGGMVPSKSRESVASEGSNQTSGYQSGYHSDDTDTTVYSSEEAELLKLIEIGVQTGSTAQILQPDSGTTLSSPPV

NFAT-luciferase reporter, 6 h stimulation; EC50 as fold against the unlabeled counterpart (printed as 'fold lower', weaker response) [1] [fold]	EC50 [2] [nM]	Substance
> 120	1.2	VEGF165a homodimer labeled with 2-fold molar excess of DY605-NHS-ester (ligand)
	0.045	CBT-labeled VEGF165a homodimer (vascular endothelial growth factor isoform VEGF165a labeled with DY605-PEG-CBT on the N-terminal cysteine) (ligand)
> 120	12	VEGF165a homodimer labeled with 5-fold molar excess of DY605-NHS-ester (ligand)
